Results published in publication doi:10.1101/2021.04.08.438961 (bioRxiv, 2021).
Substitutions are numbered along the chain they refer to. Names and notes keep the numbering of the source. Values joined by “and” are separate entries in the source; they are usually repeats but may differ in a detail not shown here. Equal entries are not always repeated.

B1: MinD (natural protein)
chain: MARIIVVTSGKGGVGKTTSSAAIATGLAQKGKKTVVIDFDIGLRNLDLIMGCERRVVYDFVNVIQGDATLNQALIKDKRTENLYILPASQTRDKDALTREGVAKVLDDLKAMDFEFIVCDSPAGIETGALMALYFADEAIITTNPEVSSVRDSDRILGILASKSRRAENGEEPIKEHLLLTRYNPGRVSRGDMLSMEDVLEILRIKLVGVIPEDQSVLRASNQGEPVILDINADAGKAYADTVERLLGEERPFRFIEEEKKGFLKRLFGG
B2: MinD D40A (natural protein)
chain: B1 chain with D40A
B3: MinE (natural protein)
chain: MALLDFFLSRKKNTANIAKERLQIIVAERRRSDAEPHYLPQLRKDILEVICKYVQIDPEMVTVQLEQKDGDISILELNVTLPEAEELK

Legend:
[1] = biological target: the molecule itself; test: mass-sensitive particle tracking
MinD = biological target: B1; test: mass-sensitive particle tracking

B1 was tested, and the “stoichiometry N” value [1] was 2 and > 2 and 3 and 4.

With B2 the “stoichiometry N” value [1] was 2 and 4.

B3: binds (MinD).
